Data as given in the supplement of paper PMC11865577.

Experiments:
Test in all cases: pull-down binding Z-score (relative to library population); higher = stronger binding
[1] = system: G-clamp-N3 (biotin conjugate); conditions: RNA library: Library-1 (pre-miRNA loops + repeats)
Outline: (§1)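 Biotin-conjugated small molecule (100 pmol) on streptavidin beads was incubated with 1 μg of heat-folded Cy5- or Cy3-end-labelled RNA library in phosphate/NaCl/KCl buffer at 25 °C for 60 min. Following three washes, RNA was eluted with hot SDS and hybridised at 55.5 °C for 20 h to a DNA barcode microarray. The binding value is a Z-score computed from the library mean and standard deviation, after subtraction of beads without compound and averaging of barcoded replicate probes with the highest and lowest excluded.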

[2] = system: TO-3-N3 (biotin conjugate); conditions: RNA library: Library-2
Outline: as §1

[3] = system: TO-3-N3-2 (biotin conjugate); conditions: RNA library: Library-2
Outline: as §1

TO-N3 (biotin conjugate) = conditions: RNA library: Library-2
Outline: as §1

[4] = system: TO-N3-2 (biotin conjugate); conditions: RNA library: Library-2
Outline: as §1

Sequence | pull-down binding Z-score [1] | pull-down binding Z-score [2] | pull-down binding Z-score [3] | pull-down binding Z-score (TO-N3 (biotin conjugate)) | pull-down binding Z-score [4]
GUUGCAUGUUGUCACGGCCUCAAUGCAAU [hsa-mir-32] | -1.33 | -0.164 | -0.202 | 0.0815 | 0.552
GUUGCUUAGAUUACAUGUAAC [hsa-mir-890] | -0.226 | -0.632 | -0.214 | -0.579 | 0.419
GUUGGAUGGUCUAAUUGUGAAGCUCCUAAC [hsa-mir-141] | -0.549 | -0.103 | -0.259 | -0.138 | -0.0552
GUUGGCUCAAGAAAGGGAGAUAGAUGGUAGCCC [hsa-mir-6884] | 0.473 | 1.71 | 1.51 | 1.94 | 3.94
GUUGGGAUUGAGUUUUGAACUCGGC [hsa-mir-196a-2] | 0.29 | 0.00707 | -0.0929 | -0.0442 | -0.0161
GUUGGGCAUCCACAGUCUCCCACC [hsa-mir-1911] | -1.43 | -0.0617 | -0.322 | 0.206 | 0.612
GUUGGGGAACAGGUGGUUAGCACUUCAU [hsa-mir-5196] | 0.351 | 1.07 | 0.521 | 1.35 | 0.81
GUUGUUGUCUUACUGCGCUCAACAAC [hsa-mir-7-2] | 0.767 | 0.0252 | -0.285 | -0.0893 | -0.241
GUUGUUGUGAGCAAUAGUAAGGAAGCAAU [hsa-mir-34a] | 0.984 | 0.276 | 0.501 | 0.423 | 0.486
GUUGUUUUUAGAUAACUAAAUCGACAAC [hsa-mir-7-1] | 0.109 | 0.721 | 0.0396 | 0.59 | 0.0256
GUUUACGUGAUUCCUGGUUAAUC [hsa-mir-376b] | 0.375 | -0.121 | -0.0636 | -0.0962 | -0.0759
GUUUAUUUUGUAGC [hsa-mir-4317] | -1.09 | 0.299 | -0.0511 | 0.221 | -0.593
GUUUCUAAAAAAAUAAAAAGUUAAAAAAAUUUAUGUUAACGUGUAAUGUGUUUACUAAUUUUUUUUUUUUUUUUUGGAGAC [hsa-mir-3908] | -1.28 | -0.27 | 0.349 | -0.136 | -0.771
GUUUCUGUUGUCUGAAAGGAAAGAAAG [hsa-mir-520e] | -1.01 | -0.489 | -0.346 | -0.486 | 0.25
GUUUGAUAGUUUAGACACAAAC [hsa-mir-3591] | 0.0903 | 0.44 | 0.11 | 0.263 | -0.389
GUUUGCAAGGGGUGUUUCUGUCCAUGGUCAGGC [hsa-mir-4283-1_4283-2] | 1.19 | 0.578 | 0.154 | 0.778 | 0.725
GUUUGCCUGUUAAUGAAUUCAAAC [hsa-mir-3129] | -0.522 | 0.445 | 0.248 | 0.513 | 0.0357
GUUUGGCAGGACAGUUUCCAAGC [hsa-mir-6779] | -0.893 | -0.587 | -0.323 | -0.451 | 0.15
GUUUGGGUGCGGUUGGGAGUCUCUAAU [hsa-mir-200c] | 0.194 | 1.66 | 1.39 | 1.67 | 1.41

Sequence | pull-down binding Z-score [1] | pull-down binding Z-score [2] | pull-down binding Z-score [3] | pull-down binding Z-score (TO-N3 (biotin conjugate)) | pull-down binding Z-score [4]
GUUUUACUAUGAUGAGGUGUGCCAUCCACCCCAUCAUAGUAAAC [hsa-mir-606] | -0.172 | -0.262 | -0.139 | -0.422 | -0.698
GUUUUUUAAGAGGAAGGGAGACCUAAGCUAGCA [hsa-mir-4481] | 0.269 | 0.205 | 0.475 | 0.507 | 0.747
UAAAGAGUAUUCAACAUC [hsa-mir-1245b] | -0.935 | -0.609 | 0.0553 | -0.49 | -0.373
UAAGAGUAAUAGCUCUCUAGGUUAUUAUGAAUA [hsa-mir-5692c-1] | -0.762 | -0.283 | 0.109 | -0.449 | -0.712
UAAGUGUCCUAGCACUUA [hsa-mir-374b] | 0.214 | 0.251 | -0.524 | -0.0395 | -0.647
UAAGUGUUAUAGCACUUA [hsa-mir-374a] | -0.753 | -0.901 | -0.541 | -1.38 | -1.79
UAAGUUGUGAUCAUACCA [hsa-mir-1273g] | -1.51 | -0.424 | -0.0944 | -0.24 | 0.165
UAAUAACUGACAAACAGACAAUUG [hsa-mir-4774] | -0.873 | -0.343 | -0.145 | -0.376 | -0.303
UAAUAGCAAUCCUUAAAUGCCAUUA [hsa-mir-4477b] | -0.537 | -0.947 | -0.0844 | -1.24 | -1.16
UAAUAUGCACUAUAAAUAUAUUG [hsa-mir-450a-1] | -0.725 | -0.774 | -0.431 | -1.16 | -1.33
UAAUAUGUAAUAUAAAUGUAUUG [hsa-mir-450a-2] | -0.938 | 0.202 | -0.134 | -0.167 | -0.926
UAAUCACAGGCCACAUUUCUGAAUA [hsa-mir-1295b] | -1.08 | -0.745 | -0.391 | -0.716 | -0.437
UAAUGAUUGGAGUCAUUUUCAGAGCAUUA [hsa-mir-3202-1] | 1.44 | -0.304 | -0.262 | -0.407 | -0.537
UAAUGCUCUGAAAAUGACUCCAAUCAUUA [hsa-mir-3202-2] | -1.64 | -0.685 | -0.069 | -0.741 | -0.457
UACAAUUUUUUUUUUUUUAAAUUUUA [hsa-mir-1303] | 0.8 | -0.51 | 0.111 | -0.893 | -1.17
UACAUAGUUCAUGCUGAGGCCGGGAUUUCAUGCAGAAAACUGGUUGCAAAAGGUGCUGAAG [hsa-mir-6085] | -0.725 | -0.189 | 0.378 | 0.573 | 1.13
UACUAACAGCACUGGAGGGUGUA [hsa-mir-142] | 2.68 | -0.0529 | 0.107 | 0.114 | 0.533
UAGACAAUGGUUUCAUCAUUUCGUCUG [hsa-mir-4427] | -0.055 | -0.317 | -0.103 | -0.379 | -0.052
UAGAGGGUAAAAUUAAUAACCUUCUA [hsa-mir-628] | 0.0533 | 0.214 | 0.114 | -0.152 | -0.888

Sequence | pull-down binding Z-score [1] | pull-down binding Z-score [2] | pull-down binding Z-score [3] | pull-down binding Z-score (TO-N3 (biotin conjugate)) | pull-down binding Z-score [4]
UAGAGUAGGAGAGCCCACUGA [hsa-mir-6846] | 0.203 | 0.712 | 0.147 | 1.28 | 1.21
UAGAUACUCAGGAGGGUGAGUAUCUA [hsa-mir-5689] | 1.64 | -0.511 | -0.33 | -0.797 | -0.726
UAGAUGAAUAAAUGAAUGACUCAUCA [hsa-mir-545] | -0.383 | -0.346 | 0.146 | -0.414 | -0.21
UAGAUGUUAUAAAAAUAUAUAUCUG [hsa-mir-4680] | 0.187 | -0.708 | -0.189 | -1.08 | -1.07
UAGGAGCUGUGCCUCCUGGCCUAUUCCUGUUCGUG [hsa-mir-8056] | 0.294 | -0.344 | -0.167 | 0.0941 | 0.623
UAGGAUUUGGGAGUUAUACUA [hsa-mir-5690] | 0.541 | -0.528 | -0.0337 | -0.492 | -0.349
UAGGCCCACUGCUCAGUGGAGC [hsa-mir-7847] | 0.533 | -0.238 | -0.0119 | 0.139 | 0.845
UAGGCUGUGCAGGUCCCAAUGGGCCUA [hsa-mir-26a-1] | 1.56 | 0.169 | -0.0454 | 0.151 | 0.528
UAGGCUGUUUCCAUCUGUGAGGCCUA [hsa-mir-26a-2] | -0.141 | -0.164 | -0.375 | -0.233 | -0.00853
UAGGGCGCGGAGGGCGGACCGGGAA [hsa-mir-638] | 0.973 | 5.36 | 6.57 | 5.19 | 4.4
UAGGGCUGGAUGGUAGGGCCCA [hsa-mir-6890] | 2.15 | 0.343 | 0.343 | 0.642 | 1.13
UAGGUGGUCGAAGUCAUCCACA [hsa-mir-7153] | -0.765 | -0.108 | 0.264 | 0.131 | 0.498
UAGGUUGUGUGCUGUCCAGCCUG [hsa-mir-26b] | -0.497 | -0.484 | -0.429 | -0.388 | 0.271
UAGGUUGUUAUUUAAUCCAACU [hsa-mir-190a] | -1 | -0.24 | -0.00409 | -0.267 | -0.661
UAGUACAGGUGAGAUUGUACUG [hsa-mir-3920] | 0.5 | -0.707 | -0.323 | -0.888 | -0.564
UAGUCUAAUAGGGACUA [hsa-mir-5681b] | 2.76 | 0.02 | -0.0587 | -0.292 | -1.21
UAGUGGAAAGAGCACUG [hsa-mir-378b] | 1.15 | -0.39 | -0.158 | -0.347 | -0.274
UAUAACUUGAAGAAUUCAAAUAGUCAUG [hsa-mir-3146] | -0.817 | -0.804 | -0.34 | -1.06 | -0.75
UAUAGCUACAUCAGUUAUAACUAUAUCAGUUAAA [hsa-mir-5582] | -1.59 | 1.67 | 0.447 | 1.57 | 0.00457
